{"source": "patent US20150258211", "system": "GST-GFP fusion protein expressed from pJB-HTS-GFP (GST, hexa-histidine tag, thrombin cleavage site LVPRGS, GFP) [GST: P08515]", "sequence (P08515 whole entry, looked up, the tested form may be a part)": "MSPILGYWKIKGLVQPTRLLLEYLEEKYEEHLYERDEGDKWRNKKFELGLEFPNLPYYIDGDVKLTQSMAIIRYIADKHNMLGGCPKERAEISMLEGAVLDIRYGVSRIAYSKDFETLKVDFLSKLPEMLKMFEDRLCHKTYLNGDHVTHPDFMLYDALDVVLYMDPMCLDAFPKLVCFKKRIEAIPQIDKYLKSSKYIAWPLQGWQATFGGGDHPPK", "data": [{"substance": "thrombin", "values": [{"measurement": "Michaelis-Menten constant (Km) of thrombin cleavage of GST-GFP associated with PEGDA-GSH microspheres, SDS-PAGE densitometry", "result": "significantly increased from approximately 0.18 µM to 0.30 µM"}, {"measurement": "Michaelis-Menten constant (Km) of thrombin cleavage of free GST-GFP, SDS-PAGE densitometry", "result": "significantly increased from approximately 0.18 µM to 0.30 µM"}]}]}
